The results in this text go back to US20230235047A1 (Innovent, published 2023).

B1: Hz51H10 (antibody, human IgG1, kappa, V domains shown)
VH: QVQLVQSGAEVKKPGASVKVSCKASGYTFTKYIIQWVRQAPGQRLEWMGYINPYNDDTKYNEKFKGRVTITRDTSASTAYMELSSLRSEDMAVYYCARTYYGNSFPNWGQGTLVTVSS
VL: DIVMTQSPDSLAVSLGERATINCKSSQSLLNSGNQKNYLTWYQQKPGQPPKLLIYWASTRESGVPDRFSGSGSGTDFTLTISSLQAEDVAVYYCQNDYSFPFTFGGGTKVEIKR
B2: Hz38F8 (antibody, human IgG1, kappa, V domains shown)
VH: EVQLVESGGGLVQPGGSLRLSCAASGFSFSDYGMHWVRQAPGKGLEWVSYINSGSRTLYYADTVKGRFTISRDNAKNSLYLQMNSLRDEDTAVYYCARNAYYGNAMDYWGQGTLVTVSS
VL: DIVMTQSPDSLAVSLGERATINCKSSQSLLNSGNQRNYLTWYQQKPGQPPKLLIYWSSTRGSGVPDRFSGSGSGTDFTLTISSLQAEDVAVYYCQNVYYYPFTFGQGTRLEIKR
B3: Hz46F6 (antibody, human IgG1, kappa, V domains shown)
VH: QVQLQESGPGLVKPSETLSLTCTVSGFSLTDYGVSWIRQPPGKGLEWIGVMWGGGNTYYNSALKSRVTISVDTSKNQFSLKLSSVTAADTAVYYCARQRYGGNAMDYWGQGTLVTVSS
VL: DIVMTQSPDSLAVSLGERATINCKSSQSLLNSGNQRNYLTWYQQKPGQPPKLLIYWASTRESGVPDRFSGSGSGTDFTLTISSLQAEDVAVYYCQNSYFYPFTFGGGTKVEIKR
B4: Hz3G3 (antibody, human IgG1, kappa, V domains shown)
VH: QVQLVQSGAEVKKPGASVKVSCKASGYSFTTYWMHWVRQAPGQGLEWMGLIDPSDSETRLNQKFKDRVTMTVDTSTSTVYMELSSLRSEDTAVYYCASNRWLLGWGQGTLVTVSS
VL: DIVMTQSPDSLAVSLGERATINCKSSQSLLNSGNQKNYLTWYQQKPGQPPKLLIYWASTRESGVPDRFSGSGSGTDFTLTISSLQAEDVAVYYCQNDYSYPLTFGQGTKLEIKR
B5: Hz14A5 (antibody, human IgG1, kappa, V domains shown)
VH: QVQLQESGPGLVKPSETLSLTCTVSGFSLNSYGVGWIRQPPGKGLEWIGVIWGDVSTNYHSVLISRVTISKDTSKNQVSLKLSSVTAADTAVYYCARITRGNAMDYWGQGTLVTVSS
VL: DIVMTQSPDSLAVSLGERATINCKSSQSLLNSGNQRNYLTWYQQKPGQPPKLLIYWASTRKSGVPDRFSGSGSGTDFTLTISSLQAEDVAVYYCQNNYLFPLTFGGGTKVEIKR
B6: Hz25C7 (antibody, human IgG1, kappa, V domains shown)
VH: EVQLVESGGGLVQPGGSLRLSCAASGFTFSDYGMAWVRQAPGKGLEWVAFINNLAYSIYYVDTVTGRFTISRDNAKNSLYLQMNSLRAEDTAVYYCARFTTGNVMDYWGQGTLVTVSS
VL: DIVMTQSPDSLAVSLGERATINCKSSQSLLQGGNQKNYLTWYQQKPGQPPKLLIYWSSTRESGVPDRFSGSGSGTDFTLTISSLQAEDVAVYYCQNSYSYPLTFGGGTKVEIKR
B7: Hz59C1 (antibody, human IgG1, kappa, V domains shown)
VH: QVQLQESGPGLVKPSETLSLTCTVSGYSITSGYGWNWIRQPPGKGLEWIGYIHFSGSTNYNPSLKSRVTISVDTSKNQFSLKLSSVTAADTAVYYCARSGKGNAMDYWGQGTLVTVSS
VL: DIVMTQSPDSLAVSLGERATINCKSSQSLLNSGNQKNYLTWYQQKPGQPPKLLIYWASTRESGVPDRFSGSGSGTDFTLTISSLQAEDVAVYYCQNDYYFPFTFGGGTKVEIKR
B8: 3G3 (antibody secreted by the hybridoma, culture supernatant) (antibody, V domains shown)
VH: QVQLQQSGPQLVRPGASVKISCKASGYSFTTYWMHWVKQRPGQGLEWIGLIDPSDSETRLNQKFKDKATLTVDKSSSTAYMRLSSPTSEDSAVYYCASNRWLLGWGQGTLVTVSS
VL: DIQMIQSPSSLTVTAGEKVTMSCKSSQSLLNSGNQKNYLTWYQQKPGQPPKLLIYWASTRESGVPDRFTGSGSGTDFTLTISSVQTEDLAVYYCQNDYSYPLTFGAGTKLEIK
B9: 25C7 (antibody secreted by the hybridoma, culture supernatant) (antibody, V domains shown)
VH: EVMLVESGGGLVQPGGSRKLSCAASGFTFSDYGMAWVRQAPGKGPEWVAFINNLAYSIYYVDTVTGRFTISRENAKDTLYLEMSSLRSEDTALYYCARFTTGNVMDYWGQGTSVTVSS
VL: DIVMTQSPSSLTVTAGEKVTMTCKSSQSLLNGGNQKNYLTWYQQKPGQPPKLLIYWSSTRESGVPDRFTGSGSGTDFTLTITSVQAEDLAVYYCQNSYSYPLTFGSGTKLELK
B10: 69H9 (antibody secreted by the hybridoma, culture supernatant) (antibody, V domains shown)
VH: EVQLQQSGPELMKPGASVKISCKATGYSFSSYNIHWVKQSHGKSLEWIGYIAPFNGDSRYNQKFKGKATVTVDKSSSTAYMHLSSLTSEDSAVYYCGRLNRGNSLDYWGQGTSLTVSS
VL: DIVMTQSPSSLTVTAGEKVTMSCKSSQSLFNSGNQRNYLTWYQQKPGQPPKLLIYWASTRESGVPDRFTGSGSGTDFTLTISSVQAEDLAFYYCQNNYIYPLTFGAGTKLELK
B11: 46F6 (antibody secreted by the hybridoma, culture supernatant) (antibody, V domains shown)
VH: QVQLKESGPGLVAPSQSLSITCTVSGFSLTDYGVSWIRQPPGKGLEWLGVMWGGGNTYYNSALKSRLSISKDNSKSQVFLKMNSLQSDDTAMYYCAKQRYGGNAMDYWGQGTSVTVSS
VL: DIQMTQSPSSLTVTAGEKVTMSCKSSQSLLNSGNQRNYLTWYQQIPGQPPKLLIYWASTRESGVPNRFTGSGSGAEFTLTISSVQTEDLAVYYCQNSYFYPFTFGAGTKLELK
B12: 14A5 (antibody secreted by the hybridoma, culture supernatant) (antibody, V domains shown)
VH: QVQLKESGPGLVAPSQSLSITCSVSGFSLNSYGVGWVRQPPGKGLEWLGVIWGDGSTNYHSVLISRLSIRKDNSKSQVFLKLNSLQTDDTATYYCAMITRGNAMDYWGQGTSVTVSS
VL: DIVMTQSPSSLTVTAGEKITMSCKSSQSLLNSGNQRNYLTWYQQKPGQTPKLLIYWASTRKSGVPDRFTGSGSGTDFTLTISSVQAEDLAVYSCQNNYLFPLTFGAGTKLELK
B13: 59C1 (antibody secreted by the hybridoma, culture supernatant) (antibody, V domains shown)
VH: QVQLKESGPDLVKPSQSLSLTCTVTGYSITSGYGWNWIRQFPGNKLEWMGYIHFSGSTNYNPSLKSRISITRDTSKNQFFLQLNSVTTEDTATYYCARSGKGNAMDYWGQGTSVTVSS
VL: DIQMTQSPSSLTVTAGEKVTMSCKSSQSLLNSGNQKNYLTWYQQKPGQPPKLLIYWASTRESGVPDRFTGSGSGTDFTLTVINMQAEDLALYYCQNDYYFPFTFGSGTKLEIK
B14: 38F8 (antibody secreted by the hybridoma, culture supernatant) (antibody, V domains shown)
VH: EVQLVESGGGLVKPGGSLKLSCAASGFSFSDYGMHWVRQAPEKGLEWIAYINSGSRTLYYADTVKGRFTISRDNAKNTLFLQMTSLRSEETAMYYCTRNAYYGNAMDYWGQGTSVTVSS
VL: DIQMTQSPSSLTVTAGEKVTMSCKSSQSLLNSGNQRNYLTWYQQIPGQPPKLLIYWSSTRGSGVPDRFTGSGSGTDFTLTISSVQAEDLAVYFCQNVYYYPFTFGSGTRLEVK

The target of one assay is T1, human Claudin18.2 protein (P50251802, GenScript) (human, UniProt P56856-2 1-261, limits assumed).
T1 construct: also called human CLDN18.2
Kind of assay: SPR (Biacore T200), human Claudin18.2 amine-coupled to the chip, antibody 0-100 nM in the mobile phase, 1:1 model. The procedure: According to the manufacturer's instructions, human Claudin18.2 (GenScrip, P50251802) was coupled to the surface of a CMS chip (GE Healthcare, 29-1496-03) using the amino coupling kit (GE Healthcare, BR-1006-33), and the remaining activation sites were blocked by injection of 1 M ethanolamine after coupling. According to the manufacturer's instructions, the binding and dissociation between the antigen on the chip surface and antibodies in the mobile phase were determined by Biacore (GE Healthcare, T200) to obtain affinity and kinetic constants. The antibodies (0-100 nM) after gradient dilution flowed over the chip surface in an order from low to high concentrations, with the binding time of 180 s and the dissociation time of 600 s. Finally, the chip was regenerated using 10 mM Glycine pH 1.5 (GE Healthcare, BR-1003-54). Kinetic analysis of the data results were performed using Biacore T200 analysis software with a 1:1 binding model.
(Surface plasmon resonance follows binding to a sensor surface in real time, without labels.)
In the case of B1, the Kd (usually the concentration at which binding is half-saturated) came out at 1.94 nM; the off-rate (koff) (as a rule, the rate constant with which the complex falls apart) turned out to be 0.000631 s⁻¹; the kon (in general, the rate constant with which the complex forms) came to 325000 M⁻¹ s⁻¹.
In the same order, the values of B2 are 0.314 nM, 9.97e-05 s⁻¹ and 318000 M⁻¹ s⁻¹.
In the same order, the values of B3 are 1.03 nM, 0.00015 s⁻¹ and 147000 M⁻¹ s⁻¹.
In the same order, the values of B4 are 14.2 nM, 0.000799 s⁻¹ and 56500 M⁻¹ s⁻¹.
In the case of B5, the affinity, expressed as Kd, was 0.49 nM; the koff amounted to 0.000208 s⁻¹; the kon turned out to be 424000 M⁻¹ s⁻¹.
In the same order, the values of B6 are 9.84 nM, 0.00114 s⁻¹ and 116000 M⁻¹ s⁻¹.
The like results for B7 were, in that order, 1.75 nM, 0.000433 s⁻¹ and 248000 M⁻¹ s⁻¹.

For a further assay, the target named is T2, human CLDN18.1 on cells (CHO-hCLDN18.1) (human, UniProt P56856 1-261).
T2 construct: whole, on cells; also called human Claudin18.1
The assay can be described thus: flow cytometry, hybridoma supernatant on CHO-hCLDN18.1. (A flow cytometer gives signals particle by particle.)
In the case of B8, the binding result is “no binding”.
For the molecule B9, the binding result is listed as “no binding”.
For the molecule B10, the binding result is “no binding”.
Take B11: the binding result was “no binding”.
The same measure, in the same setting: the value for B12 was “no binding”.
The same measure, in the same setting: the value for B13 was “no binding”.
The same measure, in the same setting: the value for B14 was “no binding”.
